This note sets out measurements from IntAct's records for PubMed 21252223.

First the molecules themselves.
B1: Swi5-dependent recombination DNA repair protein 1 homolog (Homo sapiens), Q86XK3 (parent)
chain: MAEGEKNQDFTFKMESPSDSAVVLPSTPQASANPSSPYTNSSRKQPMSATLRERLRKTRFSFNSSYNVVKRLKVESEENDQTFSEKPASSTEENCLEFQESFKHIDSEFEENTNLKNTLKNLNVCESQSLDSGSCSALQNEFVSEKLPKQRLNAEKAKLVKQVQEKEDLLRRLKLVKMYRSKNDLSQLQLLIKKWRSCSQLLLYELQSAVSEENKKLSLTQLIDHYGLDDKLLHYNRSEEEFIDV
partner: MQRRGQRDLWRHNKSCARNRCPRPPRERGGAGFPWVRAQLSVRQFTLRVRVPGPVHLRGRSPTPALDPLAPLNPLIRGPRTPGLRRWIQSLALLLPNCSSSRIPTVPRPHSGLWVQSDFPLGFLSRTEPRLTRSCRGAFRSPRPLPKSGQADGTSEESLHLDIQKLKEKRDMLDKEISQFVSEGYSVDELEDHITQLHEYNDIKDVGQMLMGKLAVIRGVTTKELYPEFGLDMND

This assay covers variants of B1. As to conditions: with swi5_human SWI5, Q1ZZU3.
For the variant MAEGEKNQDFTFKMESPSDSAVVLPSTPQASANPSSPYTNSSRKQPMSATLRERLRKTRFSFNSSYNVVKRLKVESEENDQTFSEKPASSTEENCLEFQESFKHIDSEFEENTNLKNTLKNLNVCESQSLDSGSCSALQNEFVSEKLPKQRLNAEKAKLVKQVQEKEDLLRRPKLVKMYRSKNDLSQLQLLIKKWRSCSQLLLYELQSAVSEENKKLSLTQLIDHYGLDDKLLHYNRSEEEFIDV [L173P], the “effect of a mutation on the interaction” value is “with no effect”.
